The supplement of paper PMC9112550, “Optimization of the antimicrobial peptide Bac7 by deep mutational scanning” (BMC Biology, 2022)

tested on: Escherichia coli TOP10; assay: shrunken log2 fold change of peptide-encoding DNA abundance (4.5 h post-induction vs induction); higher = less antimicrobial activity (less host growth inhibition); conditions: time post-induction: 4.5 h; library: site-saturation at positions 5, 18, 19, 20
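Note: peptides expressed intracellularly from a pBAD plasmid library in pooled LB shake-flask culture, induced with 0.3% L-arabinose, DNA abundance read by NGS, three biological replicates, DESeq2 with apeglm shrinkage.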

| Sequence | shrunken log2 fold change |
| --- | --- |
| RRIRGRPPRLPRPRPRPMPWPRP | 0.25 |
| RRIRERPPRLPRPRPRPEGPPRP | 0.23 |
| RRIRWRPPRLPRPRPRPAFIPRP | 0.0835 |
| RRIRIRPPRLPRPRPRPMEHPRP | -0.199 |
| RRIRKRPPRLPRPRPRPGAGPRP | 0.734 |
| RRIRYRPPRLPRPRPRPIVMPRP | -0.254 |
| RRIRDRPPRLPRPRPRPTEYPRP | -0.154 |
| RRIRLRPPRLPRPRPRPEGAPRP | 0.552 |
| RRIRSRPPRLPRPRPRPWVAPRP | 0.0561 |
| RRIRSRPPRLPRPRPRPILPPRP | 0.161 |
| RRIRSRPPRLPRPRPRPIGHPRP | -0.171 |
| RRIRARPPRLPRPRPRPQQPPRP | 0.0738 |
| RRIRKRPPRLPRPRPRPTHQPRP | 0.612 |
| RRIRSRPPRLPRPRPRPHDPPRP | -0.0194 |
| RRIRRRPPRLPRPRPRPWKAPRP | 0.0256 |
| RRIRRRPPRLPRPRPRPAALPRP | 0.55 |
| RRIRHRPPRLPRPRPRPLFFPRP | -0.171 |
| RRIRKRPPRLPRPRPRPYCYPRP | -0.182 |
| RRIRMRPPRLPRPRPRPLPDPRP | 2.49 |
| RRIRMRPPRLPRPRPRPKHQPRP | 0.634 |
| RRIRMRPPRLPRPRPRPCSEPRP | 0.514 |
| RRIRQRPPRLPRPRPRPVQEPRP | 0.00554 |

| Sequence | shrunken log2 fold change |
| --- | --- |
| RRIRWRPPRLPRPRPRPPQDPRP | 0.267 |
| RRIRNRPPRLPRPRPRPCQEPRP | 0.15 |
| RRIRWRPPRLPRPRPRPQCRPRP | -0.00115 |
| RRIRERPPRLPRPRPRPKACPRP | 0.0288 |
| RRIRRRPPRLPRPRPRPCRCPRP | -0.00341 |
| RRIRNRPPRLPRPRPRPAGTPRP | 0.0756 |
| RRIRGRPPRLPRPRPRPVSAPRP | 0.676 |
| RRIRPRPPRLPRPRPRPPGTPRP | 0.317 |
| RRIRIRPPRLPRPRPRPANVPRP | -0.0188 |
| RRIRKRPPRLPRPRPRPRFAPRP | 0.614 |
| RRIRIRPPRLPRPRPRPHFLPRP | -1.42 |
| RRIRFRPPRLPRPRPRPNRRPRP | 0.048 |
| RRIRLRPPRLPRPRPRPTADPRP | 0.346 |
| RRIRMRPPRLPRPRPRPFHWPRP | -0.184 |
| RRIRQRPPRLPRPRPRPDNMPRP | -0.163 |
| RRIRDRPPRLPRPRPRPWHCPRP | 0.102 |
| RRIRRRPPRLPRPRPRPWVCPRP | 0.0925 |
| RRIRWRPPRLPRPRPRPACLPRP | 0.521 |
| RRIRQRPPRLPRPRPRPHVDPRP | -0.088 |
| RRIRVRPPRLPRPRPRPEKIPRP | -0.191 |
| RRIRWRPPRLPRPRPRPSMLPRP | -0.369 |
| RRIRVRPPRLPRPRPRPIMTPRP | -0.359 |

| Sequence | shrunken log2 fold change |
| --- | --- |
| RRIRRRPPRLPRPRPRPHHTPRP | -0.408 |
| RRIRSRPPRLPRPRPRPVVIPRP | -0.429 |
| RRIRQRPPRLPRPRPRPKRQPRP | 0.0299 |
| RRIRIRPPRLPRPRPRPQRGPRP | 0.0568 |
| RRIRARPPRLPRPRPRPDVSPRP | 0.106 |
| RRIRPRPPRLPRPRPRPRYEPRP | -0.0954 |
| RRIRHRPPRLPRPRPRPIANPRP | -0.24 |
| RRIRDRPPRLPRPRPRPKEKPRP | -0.0263 |
| RRIRYRPPRLPRPRPRPHNMPRP | -0.17 |
| RRIRARPPRLPRPRPRPPRQPRP | 0.769 |
| RRIRMRPPRLPRPRPRPKDFPRP | -0.025 |
| RRIRMRPPRLPRPRPRPHCAPRP | 1.76 |
| RRIRQRPPRLPRPRPRPLQDPRP | -0.0148 |
| RRIRERPPRLPRPRPRPRCCPRP | -0.234 |
| RRIRTRPPRLPRPRPRPMMSPRP | -0.282 |
| RRIRNRPPRLPRPRPRPEHIPRP | -0.313 |
| RRIRPRPPRLPRPRPRPGQKPRP | -0.00227 |
| RRIRARPPRLPRPRPRPDMQPRP | 0.984 |
| RRIRDRPPRLPRPRPRPHSGPRP | -0.0339 |
| RRIRQRPPRLPRPRPRPDPFPRP | -0.401 |
| RRIRARPPRLPRPRPRPPLMPRP | 0.408 |
| RRIRTRPPRLPRPRPRPDYFPRP | -0.153 |

| Sequence | shrunken log2 fold change |
| --- | --- |
| RRIRVRPPRLPRPRPRPLQNPRP | 0.0527 |
| RRIRTRPPRLPRPRPRPIPLPRP | -0.683 |
| RRIRARPPRLPRPRPRPMDAPRP | 0.293 |
| RRIRPRPPRLPRPRPRPFAQPRP | -0.0885 |
| RRIRLRPPRLPRPRPRPKWNPRP | -0.299 |
| RRIRNRPPRLPRPRPRPRLLPRP | 0.0984 |
| RRIRQRPPRLPRPRPRPAGGPRP | 0.204 |
| RRIRPRPPRLPRPRPRPPDKPRP | 0.266 |
| RRIRFRPPRLPRPRPRPMMRPRP | 0.126 |
| RRIRVRPPRLPRPRPRPENNPRP | 0.00554 |
| RRIRNRPPRLPRPRPRPFMFPRP | -0.399 |
| RRIRSRPPRLPRPRPRPPMIPRP | -0.17 |
| RRIRMRPPRLPRPRPRPKCNPRP | 0.159 |
| RRIRDRPPRLPRPRPRPSGDPRP | 0.163 |
| RRIRWRPPRLPRPRPRPEKCPRP | 0.0983 |
| RRIRWRPPRLPRPRPRPGPNPRP | 0.194 |
| RRIRMRPPRLPRPRPRPMVLPRP | -0.0251 |
| RRIRFRPPRLPRPRPRPAVMPRP | 0.248 |
| RRIRRRPPRLPRPRPRPKMDPRP | -0.0711 |
| RRIRSRPPRLPRPRPRPFSAPRP | -0.259 |
| RRIRMRPPRLPRPRPRPSFCPRP | -0.0778 |
| RRIRWRPPRLPRPRPRPESDPRP | 0.59 |

| Sequence | shrunken log2 fold change |
| --- | --- |
| RRIRQRPPRLPRPRPRPKRGPRP | 0.38 |
| RRIRARPPRLPRPRPRPLVGPRP | 0.321 |
| RRIRKRPPRLPRPRPRPQDPPRP | 1.55 |
| RRIRWRPPRLPRPRPRPLWCPRP | 0.149 |
| RRIRLRPPRLPRPRPRPGQQPRP | -0.0555 |
| RRIRDRPPRLPRPRPRPTEIPRP | 0.23 |
| RRIRRRPPRLPRPRPRPDDRPRP | 0.0215 |
| RRIRWRPPRLPRPRPRPHMVPRP | -0.069 |
| RRIRPRPPRLPRPRPRPQNLPRP | -0.0683 |
| RRIRCRPPRLPRPRPRPHGDPRP | -0.0473 |
| RRIRERPPRLPRPRPRPHFYPRP | -0.0121 |
| RRIRERPPRLPRPRPRPNTYPRP | -0.667 |
| RRIRFRPPRLPRPRPRPYHMPRP | -0.128 |
| RRIRFRPPRLPRPRPRPNWVPRP | -0.126 |
| RRIRGRPPRLPRPRPRPYTAPRP | -0.455 |
| RRIRPRPPRLPRPRPRPRQVPRP | 0.474 |
| RRIRWRPPRLPRPRPRPDSWPRP | 0.251 |
| RRIRSRPPRLPRPRPRPGTKPRP | 0.108 |
| RRIRERPPRLPRPRPRPVEDPRP | 0.0178 |
| RRIRIRPPRLPRPRPRPVARPRP | 0.223 |
| RRIRFRPPRLPRPRPRPDLFPRP | 0.0316 |
